Measurements as given in patent publication US20170044259A1 (published 2017).
Substitutions are numbered along the chain they refer to. Blank lines part the entries; values can stand above or below the binder they belong to.

Experiments:
[1] = biological target: T1, human PD-1-Fc (R and D systems, Minneapolis, Minn.) (human, UniProt Q15116 25-167); experiment: inhibition ELISA; hPDL-1 Fc blockade
[2] = biological target: human PD-1-His (R & D systems, Minneapolis, Minn.) (human, UniProt Q15116 25-167); experiment: BLI
human PD-1-His (R & D systems, Minneapolis, Minn.), sequence (Q15116 25-167): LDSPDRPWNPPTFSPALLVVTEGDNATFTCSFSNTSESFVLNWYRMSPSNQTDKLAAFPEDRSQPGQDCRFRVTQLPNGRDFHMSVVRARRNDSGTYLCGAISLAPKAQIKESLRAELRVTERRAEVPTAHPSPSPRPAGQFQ

[3] = biological target: T1, human PD-1-Fc (R and D systems, …); experiment: inhibition ELISA; hPDL-2 Fc blockade
[4] = biological target: T1, human PD-1-Fc (R and D systems, …); experiment: ELISA; lower left panel
[5] = biological target: T1, human PD-1-Fc (R and D systems, …); experiment: ELISA; lower right panel

T1 sequence (Q15116 25-167): as above

Kd [5]: 3.75 nM
B5: PD-1 1.5 PD026 2001 (antibody)
heavy: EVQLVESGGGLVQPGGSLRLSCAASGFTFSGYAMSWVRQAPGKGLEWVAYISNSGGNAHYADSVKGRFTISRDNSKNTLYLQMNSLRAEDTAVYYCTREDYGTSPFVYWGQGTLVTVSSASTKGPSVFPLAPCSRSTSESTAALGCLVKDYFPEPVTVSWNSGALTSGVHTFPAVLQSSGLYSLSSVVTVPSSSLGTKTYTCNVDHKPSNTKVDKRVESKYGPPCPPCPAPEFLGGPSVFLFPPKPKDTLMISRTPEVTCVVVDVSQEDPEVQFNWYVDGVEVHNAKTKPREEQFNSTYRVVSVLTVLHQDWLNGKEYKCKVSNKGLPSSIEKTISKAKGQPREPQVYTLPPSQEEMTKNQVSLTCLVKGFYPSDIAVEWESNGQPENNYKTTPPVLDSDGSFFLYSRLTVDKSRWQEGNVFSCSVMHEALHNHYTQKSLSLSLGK
light: QGQSGQGGMCSAYAYSSKLCTIGGGSSGGSISSGLLSGRSDNHGGGSDIQLTQSPSSLSASVGDRVTITCRASESVDAYGISFMNWFQQKPGKAPKLLIYAASNQGSGVPSRFSGSGSGTDFTLTISSMQPEDFATYYCQQSKDVPWTFGQGTKLEIKRTVAAPSVFIFPPSDEQLKSGTASVVCLLNNFYPREAKVQWKVDNALQSGNSQESVTEQDSKDSTYSLSSTLTLSKADYEKHKVYACEVTHQGLSSPVTKSFNRGEC

Kd [5]: 4.97 nM
B7: PD-1 1.5 PD028 2001 (antibody)
heavy: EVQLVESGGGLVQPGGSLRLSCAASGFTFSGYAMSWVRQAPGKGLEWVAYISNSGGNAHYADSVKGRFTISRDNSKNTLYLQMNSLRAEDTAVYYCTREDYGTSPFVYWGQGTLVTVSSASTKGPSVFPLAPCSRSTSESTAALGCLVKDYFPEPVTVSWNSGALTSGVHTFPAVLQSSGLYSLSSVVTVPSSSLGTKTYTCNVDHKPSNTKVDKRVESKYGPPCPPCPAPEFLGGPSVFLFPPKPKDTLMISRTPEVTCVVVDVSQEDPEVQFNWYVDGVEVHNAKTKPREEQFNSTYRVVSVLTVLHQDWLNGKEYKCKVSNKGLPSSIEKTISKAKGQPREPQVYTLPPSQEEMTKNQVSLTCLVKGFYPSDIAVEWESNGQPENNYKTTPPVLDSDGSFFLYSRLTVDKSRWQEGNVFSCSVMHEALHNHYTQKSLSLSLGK
light: QGQSGQGFQPCLMFASSCFTSKGGGSSGGSISSGLLSGRSDNHGGGSDIQLTQSPSSLSASVGDRVTITCRASESVDAYGISFMNWFQQKPGKAPKLLIYAASNQGSGVPSRFSGSGSGTDFTLTISSMQPEDFATYYCQQSKDVPWTFGQGTKLEIKRTVAAPSVFIFPPSDEQLKSGTASVVCLLNNFYPREAKVQWKVDNALQSGNSQESVTEQDSKDSTYSLSSTLTLSKADYEKHKVYACEVTHQGLSSPVTKSFNRGEC

The next lines start with the binder.

B1: Bb2 (antibody, V domains shown)
VH: QVQLVQSGAEVKKPGASVKMSCKASGYTFTDYYMDWVRQAPGQGLEWIGYIYPKNGGSSYAQKFQGRATLTVDKSTSTAYMELSSLRSEDTAVYYCARKVVATDYWGQGTLLTVSS
VL: DIQMTQSPSSLSASVGDRVTMTCKSSQSLLYSSNQKNYLAWYQQKPGKAPKLLIFWASIRESGVPSRFSGSGSGTDFTLTISSVQPEDFATYYCQQSDSYPWTFGQGTKLEIKR
IC50 [1]: 1.67 nM
Kd [2]: 5.04 nM
IC50 [3]: 1.83 nM

B2: Ba2 (antibody, V domains shown)
VH: B1 VH with K74T
VL: B1 VL
IC50 [1]: 2.2 nM
IC50 [3]: 1.2 nM

B3: D4 (antibody, V domains shown)
VH: EVQLVESGGGLVQPGGSLRLSCAHSGFSFSSYDMSWVRQAPGKGLEWVATISGGGRYTYYADSVKGRFTISRDNSKNTLYLQMNSLRAEDTAVYYCASNYYGFDYWGQGTLLTVSS
VL: DIQMTQSPSSLSASVGDRVTITCKASQDVGTAVAWYQQKPGKAPKLLIYWASTRHTGVPSRFSGSGSGTDFTLTISSVQPEDFATYYCQQYSSYPWTFGQGTKLEIKR
IC50 [1]: 2.72 nM
Kd [2]: 5.52 nM
IC50 [3]: 1.95 nM

B4: PD-1 1.5 PD019 2001 (antibody)
heavy: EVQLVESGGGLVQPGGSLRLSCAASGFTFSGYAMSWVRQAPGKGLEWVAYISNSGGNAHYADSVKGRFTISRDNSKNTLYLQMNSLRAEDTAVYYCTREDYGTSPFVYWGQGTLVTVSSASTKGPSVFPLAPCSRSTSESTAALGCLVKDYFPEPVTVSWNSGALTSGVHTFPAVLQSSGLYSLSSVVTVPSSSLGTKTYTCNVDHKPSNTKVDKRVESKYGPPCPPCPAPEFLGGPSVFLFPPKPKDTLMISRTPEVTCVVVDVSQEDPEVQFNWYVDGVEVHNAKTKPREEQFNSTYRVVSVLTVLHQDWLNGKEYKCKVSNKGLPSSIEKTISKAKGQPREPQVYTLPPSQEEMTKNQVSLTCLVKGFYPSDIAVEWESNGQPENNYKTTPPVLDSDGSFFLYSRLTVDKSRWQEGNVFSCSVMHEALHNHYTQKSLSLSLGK
light: QGQSGQGPCDQNPYFYPYVCHAGGGSSGGSISSGLLSGRSDNHGGGSDIQLTQSPSSLSASVGDRVTITCRASESVDAYGISFMNWFQQKPGKAPKLLIYAASNQGSGVPSRFSGSGSGTDFTLTISSMQPEDFATYYCQQSKDVPWTFGQGTKLEIKRTVAAPSVFIFPPSDEQLKSGTASVVCLLNNFYPREAKVQWKVDNALQSGNSQESVTEQDSKDSTYSLSSTLTLSKADYEKHKVYACEVTHQGLSSPVTKSFNRGEC
Kd [4]: 5.45 nM

B6: PD-1 1.5 PD025 2001 (antibody)
heavy: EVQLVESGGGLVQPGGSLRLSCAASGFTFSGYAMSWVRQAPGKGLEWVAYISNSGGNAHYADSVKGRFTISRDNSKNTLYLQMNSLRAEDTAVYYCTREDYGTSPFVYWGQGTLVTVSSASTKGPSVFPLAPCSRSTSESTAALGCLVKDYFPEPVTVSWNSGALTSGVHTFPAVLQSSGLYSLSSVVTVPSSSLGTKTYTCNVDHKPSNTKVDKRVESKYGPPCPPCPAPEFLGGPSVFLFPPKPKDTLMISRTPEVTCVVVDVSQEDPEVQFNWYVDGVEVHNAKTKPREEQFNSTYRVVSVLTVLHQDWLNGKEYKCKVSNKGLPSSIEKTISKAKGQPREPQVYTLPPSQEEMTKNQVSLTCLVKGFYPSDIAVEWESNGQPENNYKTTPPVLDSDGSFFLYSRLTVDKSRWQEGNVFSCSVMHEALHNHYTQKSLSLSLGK
light: B5 light with G8S, M9R, A12V, A14E, Y15V, K18G, T21D, I22W
Kd [4]: 5.22 nM
